Laboratory results published in patent US11306156.

What was measured:
[1] = biological target: tissue factor (TF) antigen (UniProt P13726); assay: SPR; log ratio against wild-type D3H44 Fab; estimated value
[2] = biological target: tissue factor (TF) antigen (UniProt P13726); assay: SPR (ProteOn XPR36): Fab captured via His tag on anti-penta-His, TF as analyte, 1:1 fit
[3] = biological target: tissue factor (TF) antigen (UniProt P13726); assay: SPR (ProteOn XPR36): Fab captured via His tag on anti-penta-His, TF as analyte, 1:1 fit; estimated value, taken from the same Fab with another L chain tag
[4] = biological target: tissue factor (TF) antigen (UniProt P13726); assay: SPR; log ratio against wild-type D3H44 Fab
[5] = biological target: tissue factor (TF) antigen (UniProt P13726); assay: SPR, Fab captured on anti-penta-His surface, TF as analyte, 1:1 fit; Fab batch C; against wild-type D3H44 Fab
[6] = biological target: tissue factor (TF) antigen (UniProt P13726); assay: SPR, Fab captured on anti-penta-His surface, TF as analyte, 1:1 fit; Fab batch C
[7] = biological target: tissue factor (TF) antigen (UniProt P13726); assay: SPR, Fab captured on anti-penta-His, TF as analyte, 1:1 fit
[8] = biological target: tissue factor (TF) antigen (UniProt P13726); assay: vs wild-type D3H44 Fab (KD 0.157 nM); SPR, Fab captured on anti-penta-His, TF as analyte

Sequence of tissue factor (TF) antigen (P13726 33-251 limits assumed): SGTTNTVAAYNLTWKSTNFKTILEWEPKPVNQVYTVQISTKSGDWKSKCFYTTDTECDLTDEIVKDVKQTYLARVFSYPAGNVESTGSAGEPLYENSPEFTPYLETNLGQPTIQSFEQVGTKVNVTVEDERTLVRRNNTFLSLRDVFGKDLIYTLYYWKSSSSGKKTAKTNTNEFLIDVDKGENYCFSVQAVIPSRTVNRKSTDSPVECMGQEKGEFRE

Substance	Change in KD with respect to wild type (-(log(KD design) - log(KD wt))) [1]	Kd [3] [nM]	Kd [7] [nM]	change in median KD compared to wild type, -(log(KD design)-log(KD wt)) [8]	other results
D3H44 Fab heterodimer, H L143D_K145T_Q179E / L T178R (H1L1 of LCCA sets 9579 and 9575)	-0.25	0.28			Kd [2]: 0.28 nM; Change in KD with respect to wild type (-(log(KD design) - log(KD wt))) [4]: -0.25
D3H44 Fab heterodimer, H L143E_K145T_Q179D / L Q124R_Q160K_T178R (H1L1 of LCCA set 9623)	0.39	0.06			
D3H44 Fab heterodimer, H L143E_K145T_Q179D / L Q124R_T178R (H1L1 of LCCA sets 9635 and 9632)	0.04	0.14			Kd [2]: 0.14 nM; Change in KD with respect to wild type (-(log(KD design) - log(KD wt))) [4]: 0.04
D3H44 Fab heterodimer, H L143E_K145T_Q179D / L T178R (H1L1 of LCCA set 9641)	0.17	0.11			
D3H44 Fab heterodimer, H L143E_K145T_Q179E / L Q124K_T178R (H1L1 of LCCA sets 9645 and 9648)	0.05	0.14			Kd [2]: 0.14 nM; Change in KD with respect to wild type (-(log(KD design) - log(KD wt))) [4]: 0.05
D3H44 Fab heterodimer, H L143E_K145T_Q179E / L Q124R_T178K (H1L1 of LCCA set 9657)	-0.08	0.19			
D3H44 H1L1 Fab heterodimer of LCCA Set # 9809 (H1 Q179R; L1 Q124E_T178E)					change in median KD compared to wild type, -(log(KD design)-log(KD wt)) [5]: 0.04; Kd [6]: 0.14 nM
D3H44 H1L1 Fab heterodimer of LCCA Set # 9831 (H1 S186K; L1 Q124E_Q160E_T180E)					change in median KD compared to wild type, -(log(KD design)-log(KD wt)) [5]: 0.09; Kd [6]: 0.13 nM
D3H44 H1L1 Fab heterodimer of LCCA Set # 9901 (H1 S186R; L1 Q124E_T180E)					change in median KD compared to wild type, -(log(KD design)-log(KD wt)) [5]: 0.36; Kd [6]: 0.07 nM
D3H44 H1L1 Fab heterodimer of LCCA Set # 9987 (H1 L143E_K145T; L1 Q124R_T178R)					change in median KD compared to wild type, -(log(KD design)-log(KD wt)) [5]: 0.15; Kd [6]: 0.11 nM
H1L1 Fab heterodimer of LCCA set 9746 (D3H44 Fab, H1 L45P_K145T_Q179E, L1 P44F_S131K)			0.35	-0.35	
H1L1 Fab heterodimer of LCCA set 10552 (D3H44 Fab, H1 L45P_L143E_K145T_H172R, L1 P44F_Q124R_Q160K_T178R)			0.29	-0.27	
H1L1 Fab heterodimer of LCCA sets 9546 and 9547 (D3H44 Fab, H1 L124R_S186R, L1 V133G_S176D_T180E)			0.24	-0.18	
H1L1 Fab heterodimer of LCCA sets 9667, 9671, 9675, 9679 and 9682 (D3H44 Fab, H1 L143E_K145T_Q179E, L1 Q124R_T178R)			0.27	-0.23	
H1L1 Fab heterodimer of LCCA sets 9735 and 9737 (D3H44 Fab, H1 L143R, L1 Q124E_V133E)			0.2	-0.09	
H1L1 Fab heterodimer of LCCA sets 9755 and 9756 (D3H44 Fab, H1 Q179K, L1 Q124E_L135W_Q160E_T180E)			0.28	-0.26	
H1L1 Fab heterodimer of LCCA sets 9757 and 9758 (D3H44 Fab, H1 Q179K, L1 Q124E_Q160E_T178E)			0.29	-0.27	
H1L1 Fab heterodimer of LCCA sets 9869, 9871, 9874, 9876 and 9879 (D3H44 Fab, H1 S186R, L1 Q124E_Q160E_T180E)			0.05	0.51	
